One block for each compound: values may come before it.
Columns and labels:
D54-MG cells = assay: calcium imaging (Fura-2) of D54-MG cells after neuroligands; type: cell-based, human
Procedure: D54-MG cells were plated on 35-mm glass bottom dishes (MatTek, Corp., Ashland, Mass.) at ˜100×10^3 per dish and cultured for 2 days. pTRIPZ transfected cells, after stable selection, were plated at a density of ˜20×10^3 per dish and treated with […] doxycycline for 4 to 5 days to allow for sufficient protein knockdown. All cells were loaded in serum-free culture medium for 45 min with the ratiometric Ca^2+ dye Fura-2-acetoxymethylester (5 μmol/L; TEFLABS, Austin, Tex.) reconstituted in 20% wiv pluronic acid in DMSO (Invitrogen, Carlsbad, Calif.). Cells were rinsed with serum-free medium and allowed to rest in 7% serum-containing medium for 45 min at 37° C. The glass-bottom dishes were placed in an environmental chamber mounted on an inverted microscope. Cells were allowed to equilibrate in the chamber for 15 min before calcium images were collected. Following equilibration, recordings were obtained with an Olympus Disk Spinning Unit (DSU) fluorescent imaging microscope where cells were alternately excited at 340 and 380 nm using an x-cite illumination light source. Emitted light was collected at >520 nm. Images were digitized online using Slidebook 4.2 software (Intelligent Imaging Innovations, Denver, Colo.), and 340:380 nm ratios were obtained every 15 seconds. Following a 5 minute baseline recording every 15 seconds, BK was applied to the cells and imaging continued every 15 seconds for 30 or 60 minutes. In a subset of experiments, BK antagonists, HOE-140 and Bradyzide were applied to the cells. These experiments were repeated at least three times and data were pooled for statistical analysis.
Glioma cells respond to environmental clues as they invade the brain. It has been previously shown that the exposure of glioma cells to certain neuroligands induces increase in intracellular calcium concentrations. In this series of experiments, we investigated Ca^2+-responses in cultured D54-MG glioma cells, after addition of acetylcholine (ACh), ATP or BK. Glioma cells were loaded with the ratiometric Ca^2+-dye FURA2-AM, and imaged over 30 min.

D54-MG-GFP glioma cells = assay: Transwell migration assay; type: cell-based, human; settings: 5 h, neuroligand at bottom of filter
Procedure: The day before the experiment was performed, ˜70% confluent dishes of cells were prepared. Transwell migration Fluoroblock cell culture inserts (BD Biosciences, San Jose, Calif.) with 8 μm pores were coated overnight with Vitronectin (BD Biosciences, San Jose, Calif.) at a concentration of 5 μg/ml in PBS. The following day, inserts were blocked with 1% fatty acid-free bovine serum albumin for 1 h. Inserts were then washed two times in PBS, and 400 μl of Migration Assay Buffer (MAB, 0.1% fatty acid-free bovine serum albumin in serum-free media) was added to the bottom of each well. Cells were rinsed once in PBS and were lifted off the dish by the addition of 0.5 mm EGTA. Cells were rinsed twice by centrifugation and resuspended in MAB and counted. Forty thousand cells were plated on the top of each filter and allowed to adhere for 30 min before drug was added. When BK+/−antagonists was added to the filters, it was added only to the bottom of the filter for chemotaxis. For migration assay, D54-EGFP MG cells were allowed to migrate for 5 hours, washed with PBS, fixed with 4% paraformaldehyde 15 minutes at room temperature, washed thrice and counterstained with DAPI for 5 minutes at room temperature. Invasion assay was performed similarly. Matrigel cell cultured inserts (BD Biosciences, San Jose, Calif.) with 8 μm pores were pretreated Vitronectin and blocked as described above. […] The number of nuclei that migrated through pores was counted. All counts per treatment were averaged and SE values were calculated. […]
To investigate the hypothesis that BK promotes glioma migration in vitro, we used Transwell migration assay which conveniently permit examination of cell migration across a membrane barrier with 8 μm pores towards vitronectin, a chemo-attractant extracellular matrix protein. This frequently used assay allows a quantitative study of drug effects with regards to drugs acting as motogens or as chemo-attractants. […]

B2R = B2R (Homo sapiens, UniProt P30411); settings: cited from earlier work
[1] = target: bradykinin-2-receptor (B2R), human, as expressed on glioma cells (D54-MG, D54-MG-GFP, U251-MG) (human) (UniProt P30411); assay: cell-based or functional assay
bradykinin-2-receptor (B2R), human, as expressed on glioma cells (D54-MG, D54-MG-GFP, U251-MG) (human), sequence (P30411 whole entry): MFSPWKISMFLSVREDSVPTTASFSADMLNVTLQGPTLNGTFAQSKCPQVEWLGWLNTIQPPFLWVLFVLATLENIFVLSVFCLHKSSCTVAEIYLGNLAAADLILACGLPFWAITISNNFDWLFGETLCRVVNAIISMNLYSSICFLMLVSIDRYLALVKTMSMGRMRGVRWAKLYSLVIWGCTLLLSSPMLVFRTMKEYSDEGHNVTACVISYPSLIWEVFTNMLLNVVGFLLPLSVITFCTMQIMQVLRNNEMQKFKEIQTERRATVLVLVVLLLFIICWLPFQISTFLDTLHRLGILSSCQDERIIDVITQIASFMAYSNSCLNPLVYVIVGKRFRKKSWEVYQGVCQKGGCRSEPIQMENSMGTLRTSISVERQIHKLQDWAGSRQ

B2R, sequence (P30411 whole entry, species assumed): as the sequence (P30411 whole entry) above

Compound: CC(=O)OCC[N+](C)(C)C [ACh, acetylcholine]
- average peak of Ca2+ response (D54-MG cells; 50 μM ACh): 0.23±0.04
- cells responded (sustained rise in intracellular calcium) (D54-MG cells; 50 μM ACh, of 128 cells imaged): 116

Compound: Nc1ncnc2c1ncn2[C@@H]1O[C@H](COP(=O)(O)OP(=O)(O)OP(=O)(O)O)[C@@H](O)[C@H]1O [ATP]
- effect on D54-MG cell migration (D54-MG-GFP glioma cells): failed to alter glioma migration
- average peak of Ca2+ response (D54-MG cells; 100 μM ATP): 0.45±0.05
- cells responded / cells imaged (D54-MG cells; 100 μM ATP): 87/146

Compound: N=C(N)NCCC[C@@H](N)C(=O)N[C@@H](CCCNC(=N)N)C(=O)N1CCC[C@H]1C(=O)N1C[C@H](O)C[C@H]1C(=O)NCC(=O)N[C@@H](Cc1cccs1)C(=O)N[C@@H](CO)C(=O)N1Cc2ccccc2C[C@@H]1C(=O)N1[C@H](C(=O)N[C@@H](CCCNC(=N)N)C(=O)O)C[C@@H]2CCCC[C@@H]21 [Icatibant]
- B2R antagonism (B2R): potent antagonist

- Ca2+-response of D54-MG cells to BK in the presence of HOE-140: average peak [1]: 0.15
- Ca2+-response of D54-MG cells to BK in the presence of HOE-140: cells responded [1]: 22 of 162 cells
- directionality of D54-MG cells in a BK concentration gradient in the presence of HOE-140 [1]: 8 of 15 cells
- rat brain slice invasion with BK and HOE-140: cells migrated up to 15 µm [1]: 25.7%
- rat brain slice invasion with BK and HOE-140: cells migrated up to 20 µm [1]: 15.4%
- rat brain slice invasion with BK and HOE-140: cells migrated up to 25 µm [1]: 6.4%
- rat brain slice invasion with BK and HOE-140: cells remaining on the top of the slice [1]: 47.5%
- rat brain slice invasion with HOE-140 alone: cells migrated up to 15 µm [1]: 29.8%
- rat brain slice invasion with HOE-140 alone: cells migrated up to 20 µm [1]: 14.4%
- rat brain slice invasion with HOE-140 alone: cells migrated up to 25 µm [1]: 3.5%
- rat brain slice invasion with HOE-140 alone: cells on top of the slice [1]: 51.9%
Compound: HOE-140 (D-Arg-[Hyp3, Thi5, D-Tic7, Oic8]bradykinin) (peptide)
